1 molecule from US20240384250A1, “FIBROBLAST GROWTH FACTOR 23 MODULATING COMPOUNDS” (THE UAB RESEARCH FOUNDATION, priority 2021, published 2024) can be followed below.

Entries after “also recorded” stand apart in the source; their conditions may differ.

What all share (test): Pull-down of FLAG-sKL with Fc-tagged FGFR on protein A/G beads, absence of FGF23
Holding throughout (assay type): binding

The target of assay [1] is T1, FGFR4 (Homo sapiens, UniProt P22455).
T1 construct: Fc-FGFR4 protein (human ectodomain) was immobilized; purchased R&D Systems 685FR050
T1 sequence (P22455 22-369 limits assumed): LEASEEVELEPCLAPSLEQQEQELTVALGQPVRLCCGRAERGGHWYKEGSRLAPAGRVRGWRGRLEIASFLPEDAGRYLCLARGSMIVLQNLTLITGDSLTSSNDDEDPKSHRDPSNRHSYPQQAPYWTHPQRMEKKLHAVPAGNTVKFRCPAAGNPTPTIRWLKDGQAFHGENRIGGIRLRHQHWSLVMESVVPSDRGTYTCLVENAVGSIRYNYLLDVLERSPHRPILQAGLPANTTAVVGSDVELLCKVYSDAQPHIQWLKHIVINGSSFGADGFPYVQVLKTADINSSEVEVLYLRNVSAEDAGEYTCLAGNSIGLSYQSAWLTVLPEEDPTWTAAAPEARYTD
The note with it: listed as FLAG-sKL. On the procedure:
(§1) To study the interaction between Fc-tagged FGFR isoforms (Fc-FGFR), FGF isoforms, and sKL, immunoprecipitation studies were conducted. Protein A beads (6501, BioVision) and protein G beads (6511, BioVision) were used at 25 μl of a 50% stock slurry per sample in a total bead volume of 50 μl. Beads were washed 5× in activity buffer (50 mM Tris [pH 7.4], 200 mM NaCl, 0.01% Tween 20). Bead spin-down assays were all performed for 2 minutes at 5000 g. Beads were resuspended in 1 ml of activity buffer in a 1.5-ml snap cap tube. One microgram of Fc-FGFR1 to 4 was incubated with the beads for 1 hour on a bead rotator. Control samples were incubated with 2 μg of anti-FGF antibody instead of Fc-FGFR. Beads were then pelleted at 5000 g for 2 minutes and washed 5× with activity buffer. Beads were resuspended and incubated with different combinations of 500 ng of FGF, 1 μg of sKL, 1.6 United States Pharmacopeia (USP) units of heparin, or phosphate-buffered saline (PBS). Beads were incubated for 1 hour on a tube rotator, and beads were pelleted and washed as before. One hundred microliters of 1× Laemmli sample buffer (1610737, Bio-Rad) with 1.42 M 2-mercaptoethanol was added, and samples were boiled for 5 minutes. Samples were analyzed using SDS-PAGE and Western blotting.
(§2) The sample (20 μl) was loaded onto Mini-PROTEAN TGX Precast Gel 4-20% for experiments with <9 samples (4568094, Bio-Rad) or Criterion TGX Precast Gel 4-20% (5678094, Bio-Rad) for experiments with >9 samples. Gels were run in 1× Tris/Glycine/SDS buffer (1610732, Bio-Rad) at 150 V and stopped when the sample dye reached the end of the gel. Gels were removed and electrotransferred via a semi-dry cassette (1703940, Bio-Rad) in I× Tris/Glycine buffer (1610734, Bio-Rad) with 20% methanol. Gels were transferred onto polyvinylidene diflouride membranes (IPVH00010, Millipore) at 20 V for 1 hour. Membranes were then blocked in 5% dried milk with 0.5% Tween 20 diluted in Tris-buffered saline (TBST; pH 7.5) for 1 hour and probed with antibodies against specific antigens at 1:1000 in TBST with 5% dried milk. Blots were washed 3× for 5 minutes in TBST and probed with HRP-coupled secondary antibodies against specific species at 1:10,000 in TBST with 5% dried milk. Membranes were imaged on the SRX-101A X-ray film developer (Konica Minolta).

In assay [2] the target is T2, FGFR1c (Homo sapiens, UniProt P11362).
T2 construct: Fc-coupled FGFR ectodomains were immobilized on protein A/G beads; purchased R&D Systems 658FR050
T2 sequence (P11362 22-376 limits assumed): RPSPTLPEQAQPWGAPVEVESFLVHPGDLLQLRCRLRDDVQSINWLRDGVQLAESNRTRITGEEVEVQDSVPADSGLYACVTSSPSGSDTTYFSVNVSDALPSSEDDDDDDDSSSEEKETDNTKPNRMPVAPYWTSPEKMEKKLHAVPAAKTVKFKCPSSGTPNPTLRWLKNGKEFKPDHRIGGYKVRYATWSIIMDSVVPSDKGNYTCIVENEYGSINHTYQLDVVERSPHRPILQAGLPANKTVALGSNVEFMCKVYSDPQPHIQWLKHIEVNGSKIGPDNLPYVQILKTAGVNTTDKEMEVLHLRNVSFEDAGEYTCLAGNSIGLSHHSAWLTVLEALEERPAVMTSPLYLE
On the procedure: as §1, §2

Assay [3] deals with T3, FGFR3c (Homo sapiens, UniProt P22607).
T3 construct: Fc-coupled FGFR ectodomains were immobilized on protein A/G beads; purchased R&D Systems 766FR050
T3 sequence (P22607 23-375 limits assumed): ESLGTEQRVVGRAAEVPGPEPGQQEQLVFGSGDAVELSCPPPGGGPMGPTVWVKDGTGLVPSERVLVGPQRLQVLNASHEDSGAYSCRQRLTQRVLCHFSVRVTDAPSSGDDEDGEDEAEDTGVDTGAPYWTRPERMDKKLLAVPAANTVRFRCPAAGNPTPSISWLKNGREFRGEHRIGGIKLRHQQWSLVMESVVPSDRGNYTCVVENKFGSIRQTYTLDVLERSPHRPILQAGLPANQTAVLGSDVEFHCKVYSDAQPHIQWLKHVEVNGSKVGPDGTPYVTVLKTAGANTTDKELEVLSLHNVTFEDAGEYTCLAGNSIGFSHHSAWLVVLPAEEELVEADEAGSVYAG
As to the method:
as §1, §2

B1: sKL: recombinant soluble α-klotho ectodomain, mouse aa 35-982 and human aa 34-981, FLAG- or Strep/His-tagged, purified from HEK293 cells (protein)
chain: EPGDGAQTWARFSRPPAPEAAGLFQGTFPDGFLWAVGSAAYQTEGGWQQHGKGASIWDTFTHHPLAPPGDSRNASLPLGAPSPLQPATGDVASDSYNNVFRDTEALRELGVTHYRFSISWARVLPNGSAGVPNREGLRYYRRLLERLRELGVQPVVTLYHWDLPQRLQDAYGGWANRALADHFRDYAELCFRHFGGQVKYWITIDNPYVVAWHGYATGRLAPGIRGSPRLGYLVAHNLLLAHAKVWHLYNTSFRPTQGGQVSIALSSHWINPRRMTDHSIKECQKSLDFVLGWFAKPVFIDGDYPESMKNNLSSILPDFTESEKKFIKGTADFFALCFGPTLSFQLLDPHMKFRQLESPNLRQLLSWIDLEFNHPQIFIVENGWFVSGTTKRDDAKYMYYLKKFIMETLKAIKLDGVDVIGYTAWSLMDGFEWHRGYSIRRGLFYVDFLSQDKMLLPKSSALFYQKLIEKNGFPPLPENQPLEGTFPCDFAWGVVDNYIQVDTTLSQFTDLNVYLWDVHHSKRLIKVDGVVTKKRKSYCVDFAAIQPQIALLQEMHVTHFRFSLDWALILPLGNQSQVNHTILQYYRCMASELVRVNITPVVALWQPMAPNQGLPRLLARQGAWENPYTALAFAEYARLCFQELGHHVKLWITMNEPYTRNMTYSAGHNLLKAHALAWHVYNEKFRHAQNGKISIALQADWIEPACPFSQKDKEVAERVLEFDIGWLAEPIFGSGDYPWVMRDWLNQRNNFLLPYFTEDEKKLIQGTFDFLALSHYTTILVDSEKEDPIKYNDYLEVQEMTDITWLNSPSQVAVVPWGLRKVLNWLKFKYGDLPMYIISNGIDDGLHAEDDQLRVYYMQNYINEALKAHILDGINLCGYFAYSFNDRTAPRFGLYRYAADQFEPKASMKHYRKIIDSNGFPGPETLERFCPEEFTVCTECSFFHTRKS
modifications: left off: small tags and cut ends
notes: recombinant soluble α-klotho ectodomain, mouse aa 35-982 and human aa 34-981, FLAG- or Strep/His-tagged, purified from HEK293 cells
B1: the “co-precipitation of FLAG-sKL with FGFR4” value in assay [1] was “to a lower extent with FGFR4; also recorded: bound to FGFR4 and to a lower extent to FGFR4”. Moreover, in assay [2], the “co-precipitation of FLAG-sKL with FGFR1c” value is listed as “could be co-precipitated with FGFR1c”. Further, the “sKL binding to FGFR3c” value in assay [3] is listed as “no sKL binding”.
